Assay [1] deals with FnBP purified from S. aureus strain Newman (Staphylococcus aureus). The assay can be described thus: competition ELISA on FnBP-coated wells; competitor anti-D320-33 F(ab')2 at 100 µg/ml. On the technique in general: An ELISA detects its analyte on a solid surface through an enzyme-linked reagent.
For assay [2] the target is unchanged. The assay can be described thus: competition ELISA on FnBP-coated wells; competitor anti-D121-34 F(ab')2 at 100 µg/ml.

The record followed here is patent US20070110748A1.

Sequence of Human plasma Fn, P02751 32-2296 (ligand) (P02751 other isoform, or with tags, fused parts or gaps limits assumed): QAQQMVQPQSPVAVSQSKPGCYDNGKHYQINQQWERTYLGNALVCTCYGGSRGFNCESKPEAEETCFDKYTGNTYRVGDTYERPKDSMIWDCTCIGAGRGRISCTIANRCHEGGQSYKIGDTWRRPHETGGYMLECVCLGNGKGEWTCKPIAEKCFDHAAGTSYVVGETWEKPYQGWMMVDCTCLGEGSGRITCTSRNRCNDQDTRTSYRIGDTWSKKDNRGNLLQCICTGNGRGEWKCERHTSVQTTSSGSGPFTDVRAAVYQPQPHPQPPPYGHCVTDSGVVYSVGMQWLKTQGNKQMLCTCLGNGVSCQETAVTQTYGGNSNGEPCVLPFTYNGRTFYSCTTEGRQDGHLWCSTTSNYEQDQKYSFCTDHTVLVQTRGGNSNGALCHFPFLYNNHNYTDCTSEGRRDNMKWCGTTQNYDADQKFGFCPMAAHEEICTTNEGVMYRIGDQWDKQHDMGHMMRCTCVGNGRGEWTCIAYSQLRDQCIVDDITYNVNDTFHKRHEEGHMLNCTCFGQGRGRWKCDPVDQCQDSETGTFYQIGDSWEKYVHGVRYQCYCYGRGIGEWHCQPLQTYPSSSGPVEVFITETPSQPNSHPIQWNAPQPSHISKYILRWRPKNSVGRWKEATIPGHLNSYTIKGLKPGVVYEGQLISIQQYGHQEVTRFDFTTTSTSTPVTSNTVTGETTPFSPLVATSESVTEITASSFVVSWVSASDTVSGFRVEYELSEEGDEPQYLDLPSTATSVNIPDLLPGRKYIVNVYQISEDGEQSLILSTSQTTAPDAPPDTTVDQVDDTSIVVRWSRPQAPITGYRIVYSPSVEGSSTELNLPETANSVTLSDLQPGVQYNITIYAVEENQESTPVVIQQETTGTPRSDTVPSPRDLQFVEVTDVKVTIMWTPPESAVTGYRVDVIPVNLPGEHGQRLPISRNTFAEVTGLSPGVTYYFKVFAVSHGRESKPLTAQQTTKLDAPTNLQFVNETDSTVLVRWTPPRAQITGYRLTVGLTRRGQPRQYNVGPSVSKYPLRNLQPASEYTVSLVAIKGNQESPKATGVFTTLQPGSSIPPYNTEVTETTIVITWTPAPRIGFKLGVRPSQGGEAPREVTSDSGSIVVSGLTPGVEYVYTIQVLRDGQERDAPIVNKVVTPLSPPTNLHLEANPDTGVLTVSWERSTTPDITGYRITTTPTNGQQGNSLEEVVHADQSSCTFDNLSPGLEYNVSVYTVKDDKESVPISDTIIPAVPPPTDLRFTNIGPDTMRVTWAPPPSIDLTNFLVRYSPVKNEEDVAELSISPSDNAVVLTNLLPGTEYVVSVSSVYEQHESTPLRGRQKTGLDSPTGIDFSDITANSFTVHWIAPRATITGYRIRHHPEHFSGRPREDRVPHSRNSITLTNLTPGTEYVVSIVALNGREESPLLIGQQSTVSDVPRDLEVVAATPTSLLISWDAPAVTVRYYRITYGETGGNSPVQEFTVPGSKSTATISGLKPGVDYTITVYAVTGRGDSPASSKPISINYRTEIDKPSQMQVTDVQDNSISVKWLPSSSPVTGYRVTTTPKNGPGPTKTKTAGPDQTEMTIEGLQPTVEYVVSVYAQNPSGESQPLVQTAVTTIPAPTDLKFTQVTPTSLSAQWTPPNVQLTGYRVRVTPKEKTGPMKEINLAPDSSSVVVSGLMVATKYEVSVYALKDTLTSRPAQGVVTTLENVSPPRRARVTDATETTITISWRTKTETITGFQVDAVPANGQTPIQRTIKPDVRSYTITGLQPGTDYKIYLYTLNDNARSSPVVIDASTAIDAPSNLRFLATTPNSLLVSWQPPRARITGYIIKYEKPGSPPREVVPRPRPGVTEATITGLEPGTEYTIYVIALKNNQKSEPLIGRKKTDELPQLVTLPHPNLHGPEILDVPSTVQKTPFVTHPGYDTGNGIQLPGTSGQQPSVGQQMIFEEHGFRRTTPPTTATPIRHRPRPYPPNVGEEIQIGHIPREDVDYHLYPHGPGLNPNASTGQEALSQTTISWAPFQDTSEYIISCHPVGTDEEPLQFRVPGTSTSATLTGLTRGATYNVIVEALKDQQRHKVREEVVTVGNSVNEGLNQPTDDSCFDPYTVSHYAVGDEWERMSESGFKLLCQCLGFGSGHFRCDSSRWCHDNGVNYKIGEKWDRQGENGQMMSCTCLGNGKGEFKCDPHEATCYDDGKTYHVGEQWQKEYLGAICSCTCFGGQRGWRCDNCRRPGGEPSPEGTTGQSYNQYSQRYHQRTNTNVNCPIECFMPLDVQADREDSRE

“Human plasma Fn, P02751 32-2296 (ligand)”: the concentration of soluble Fn at which F(ab')2 recognition of FnBP was virtually eliminated in assay [1] and in assay [2] was 50 µg/mL in each case.
